Experimental findings from patent US10858688B2, “Observation method using binding and dissociation probe” (KYOTO UNIVERSITY, priority 2015, dated 2020) are described below.

Test [1] concerns intermediate filament. Kind of test: Washability test of probe candidates. The test is classed as cell-based, Xenopus laevis. Also on record: key: “washability” is positive (P) when above criterion (2) is met. The following applies: speckles equal to or less than about 10% after switching imaging solution 10 to 20 times. The procedure:
(2) It is possible to wash and remove a probe after SiMS imaging (imaging step);
The […] of the above (2), whose result is shown in table 1, was performed in the following procedures. […] This switching of imaging solution was conducted slowly so that the observation position would not shift. Next, an imaging solution not containing a probe and not containing the active oxygen-scavenging mix was switched 10 to 20 times. After the switching, for confirmation, for an XCT cell sample in the observation chamber, speckle images of 10 frames were picked up under a similar condition to that of the localization test described in the previous paragraph, and when the number of speckles confirmed in the speckle images (i.e., the number of probes that had bound) became sufficiently smaller (equal to or less than about 10%) than the number of the speckles in the speckle images before the washing operation, washing was determined to be possible and the result was treated as P (positive).

Test [2] relates to intermediate filament. Kind of test: Measurement of binding half-life of probe-target complex. Also on record: species or system Xenopus laevis. The following applies: fixed XTC cell, single exponential fit. The source says:
A probe and a target substance have the following binding characteristics. […] The above half-life herein is preferably a half-life of a probe-target complex formed by binding between a probe and a target substance in a case when a medium containing a probe and a sample containing a target substance that is to be observed are brought into contact under a condition for performing an imaging step. […] Measurement procedures for the half-life are as below. […] Ndissociation is a cumulative relative frequency of a probe that dissociated. A cumulative relative frequency is a ratio of the speckles that disappeared within a given period of time to the total number of measured speckles (i.e. probes) (i.e. probes that dissociated within a given period of time), and represents the total number as 1. Then, by fitting the above complementary cumulative relative frequency function with an exponent function, that half-life is calculated.
The measurement of binding half-life, whose result is shown in table 1, was performed in the following procedures. Speckle images of 10000 frames picked up in the localization test were used in order to measure a period of time between the appearance of a probe that has bound to a target in a speckle image and disappearance through dissociation in a semi-manual mode by using Speckle TrackerJ, an ImageJ plug-in. In case of for example picking up of images with an exposure time of 50 ms and at a frame rate of 20 Hz, it is assumed that a period of time between the appearance and disappearance of a speckle that is observed in only one of consecutive frames is 50 ms and a period of time between the appearance and disappearance of a speckle observed in only two consecutive frames is 100 ms. […] Ndissociation is a cumulative relative frequency of probes that dissociated. Then, by fitting the complementary cumulative relative frequency function with an exponent function, the half-life was calculated. However, the binding half-life with respect to an actin filament of Atto488-Lifeact was measured by using a method that is described in detail in the section for FIG. 9 in the Brief Description of the Drawings.

Test [3] concerns intermediate filament. The test is described as follows: IRIS image test (reconstruction image). It is filed as cell-based, Xenopus laevis. Further details: key: “IRIS image” is positive (P) when above criterion (3) is met. The following applies: reconstruction from 10000 frames with DAOSTORM
On the procedure: […] It is possible to reconstruct an image of a target substance by integrating the central positions of the respective speckles. The IRIS image test of the above (3) whose result is described in table 1 was performed in the following procedures. By using all the speckle images of 10000 frames picked up in the localization test, the central point of a probe that has bound to a target in each frame of the speckle images was determined with nanometer accuracy by using DAOSTORM. By adding a large number of pieces of central point information in the fluorescence images of 10000 frames, a reconstruction image (observation image) was generated. Whether or not a distribution of a target molecule was able to be observed in that reconstruction image was determined, and when a distribution of a target molecule was observed, the result was treated as P (positive).

The test system of test [4] is intermediate filament. Kind of test: Localization test of probe candidates (integrated SiMS images). The test is classed as cell-based, Xenopus laevis. Further details: key: “localization” is positive (P) when above criterion (1) is met. The following applies: fixed, permeabilized XTC cell; lysate supernatant of EGFP fused probe; TIRF, 10000 frames. The procedure: HEK (Human embryonic kidney)-293F cells were transfected with a plasmid encoding a probe candidate protein tagged with FLAG-EGFP or 3×FLAG-EGFP. […] Centrifugal separation was performed on the lysate and the supernatant liquid was collected. In order to perform screening for a probe for IRIS, the binding capacity of a probe candidate in the supernatant liquid with respect to the structure of an XCT cell that was fixed with paraformaldehyde (PFA) and that received a permeabilization process was tested. The appearance and disappearance of single molecule speckles (Single-molecule speckles, SiMS) in the structure was tested. Screening was performed for a probe for IRIS in accordance with the following criteria:
(1) It is possible to confirm a distribution of target substances in the structure in an image resulting from adding SiMS images;
The localization test of the above (1), whose result is shown in table 1, was performed in the following procedures. First, the supernatant liquid of lysate of a cell that expressed each probe candidate was brought into contact with an XCT cell that was fixed on a coverglass and that received a permeabilization process. […] The obtained speckle images of 10000 frames were integrated so as to confirm whether or not a distribution of target substances in the cell (microtubule, intermediate filament, focal adhesion or actin filament) was able to be confirmed. When a distribution of a target substances was able to be confirmed, the result of the localization test was treated as P (positive).

B1: Plectin-1 3777-4364: EGFP fused (N terminus) human Plectin-1 fragment, residues 3777-4364 of sequence number 8 (protein, UniProt Q15149 3777-4364, looked up, fragment)
chain: YDYVRRRLTAEDLFEARIISLETYNLLREGTRSLREALEAESAWCYLYGTGSVAGVYLPGSRQTLSIYQALKKGLLSAEVARLLLEAQAATGFLLDPVKGERLTVDEAVRKGLVGPELHDRLLSAERAVTGYRDPYTEQTISLFQAMKKELIPTEEALRLLDAQLATGGIVDPRLGFHLPLEVAYQRGYLNKDTHDQLSEPSEVRSYVDPSTDERLSYTQLLRRCRRDDGTGQLLLPLSDARKLTFRGLRKQITMEELVRSQVMDEATALQLREGLTSIEEVTKNLQKFLEGTSCIAGVFVDATKERLSVYQAMKKGIIRPGTAFELLEAQAATGYVIDPIKGLKLTVEEAVRMGIVGPEFKDKLLSAERAVTGYKDPYSGKLISLFQAMKKGLILKDHGIRLLEAQIATGGIIDPEESHRLPVEVAYKRGLFDEEMNEILTDPSDDTKGFFDPNTEENLTYLQLMERCITDPQTGLCLLPLKEKKRERKTSSKSSVRKRRVVIVDPETGKEMSVYEAYRKGLIDHQTYLELSEQECEWEEITISSSDGVVKSMIIDRRSGRQYDIDDAIAKNLIDRSALDQYRAGTL
modifications: N-terminal EGFP fusion
Regarding B1, the WASHABILITY result in the test on intermediate filament [1] is “P”. The same molecule had an HALF-LIFE in the test with intermediate filament [2] of 0.059 s. Also, in the test with intermediate filament [3], the “IRIS IMAGE” value is reported as “P”. Moreover, the LOCALIZATION result in the test on intermediate filament [4] is listed as “P”.

B2: Plectin-1 4022-4364: EGFP fused (N terminus) human Plectin-1 fragment, residues 4022-4364 of sequence number 8 (protein, listed as Homo sapiens)
chain: FRGLRKQITMEELVRSQVMDEATALQLREGLTSIEEVTKNLQKFLEGTSCIAGVFVDATKERLSVYQAMKKGIIRPGTAFELLEAQAATGYVIDPIKGLKLTVEEAVRMGIVGPEFKDKLLSAERAVTGYKDPYSGKLISLFQAMKKGLILKDHGIRLLEAQIATGGIIDPEESHRLPVEVAYKRGLFDEEMNEILTDPSDDTKGFFDPNTEENLTYLQLMERCITDPQTGLCLLPLKEKKRERKTSSKSSVRKRRVVIVDPETGKEMSVYEAYRKGLIDHQTYLELSEQECEWEEITISSSDGVVKSMIIDRRSGRQYDIDDAIAKNLIDRSALDQYRAGTL
modifications: N-terminal EGFP fusion
As for B2, the WASHABILITY entry in the test on intermediate filament [1] is “P”. Besides, in the test on intermediate filament [2], the HALF-LIFE worked out at 0.103 s. In addition, the “IRIS IMAGE” value with intermediate filament [3] is reported as “P”. Besides, the LOCALIZATION result in the test with intermediate filament [4] is reported as “P”.

B3: Plectin-1 4066-4364: EGFP fused (N terminus) human Plectin-1 fragment, residues 4066-4364 of sequence number 8 (protein, listed as Homo sapiens)
chain: LEGTSCIAGVFVDATKERLSVYQAMKKGIIRPGTAFELLEAQAATGYVIDPIKGLKLTVEEAVRMGIVGPEFKDKLLSAERAVTGYKDPYSGKLISLFQAMKKGLILKDHGIRLLEAQIATGGIIDPEESHRLPVEVAYKRGLFDEEMNEILTDPSDDTKGFFDPNTEENLTYLQLMERCITDPQTGLCLLPLKEKKRERKTSSKSSVRKRRVVIVDPETGKEMSVYEAYRKGLIDHQTYLELSEQECEWEEITISSSDGVVKSMIIDRRSGRQYDIDDAIAKNLIDRSALDQYRAGTL
modifications: N-terminal EGFP fusion
As to B3, the WASHABILITY entry with intermediate filament [1] was “P”. The same molecule returned an HALF-LIFE in the test with intermediate filament [2] of 7.7 s. The LOCALIZATION entry with intermediate filament [4] is given as “P”.

B4: Plectin-1 3777-4684: EGFP fused (N terminus) human Plectin-1 fragment, residues 3777-4684 of sequence number 8 (protein, listed as Homo sapiens)
chain: YDYVRRRLTAEDLFEARIISLETYNLLREGTRSLREALEAESAWCYLYGTGSVAGVYLPGSRQTLSIYQALKKGLLSAEVARLLLEAQAATGFLLDPVKGERLTVDEAVRKGLVGPELHDRLLSAERAVTGYRDPYTEQTISLFQAMKKELIPTEEALRLLDAQLATGGIVDPRLGFHLPLEVAYQRGYLNKDTHDQLSEPSEVRSYVDPSTDERLSYTQLLRRCRRDDGTGQLLLPLSDARKLTFRGLRKQITMEELVRSQVMDEATALQLREGLTSIEEVTKNLQKFLEGTSCIAGVFVDATKERLSVYQAMKKGIIRPGTAFELLEAQAATGYVIDPIKGLKLTVEEAVRMGIVGPEFKDKLLSAERAVTGYKDPYSGKLISLFQAMKKGLILKDHGIRLLEAQIATGGIIDPEESHRLPVEVAYKRGLFDEEMNEILTDPSDDTKGFFDPNTEENLTYLQLMERCITDPQTGLCLLPLKEKKRERKTSSKSSVRKRRVVIVDPETGKEMSVYEAYRKGLIDHQTYLELSEQECEWEEITISSSDGVVKSMIIDRRSGRQYDIDDAIAKNLIDRSALDQYRAGTLSITEFADMLSGNAGGFRSRSSSVGSSSSYPISPAVSRTQLASWSDPTEETGPVAGILDTETLEKVSITEAMHRNLVDNITGQRLLEAQACTGGIIDPSTGERFPVTDAVNKGLVDKIMVDRINLAQKAFCGFEDPRTKTKMSAAQALKKGWLYYEAGQRFLEVQYLTGGLIEPDTPGRVPLDEALQRGTVDARTAQKLRDVGAYSKYLTCPKTKLKISYKDALDRSMVEEGTGLRLLEAAAQSTKGYYSPYSVSGSGSTAGSRTGSRTGSRAGSRRGSFDATGSGFSMTFSSSSYSSSGYGRRYASGSSASLGGPESAVA
modifications: N-terminal EGFP fusion
For the molecule B4, the WASHABILITY result in the test with intermediate filament [1] is “P”. In addition, the HALF-LIFE in the test on intermediate filament [2] is 0.457 s. Moreover, in the test with intermediate filament [3], the “IRIS IMAGE” value is “P”. The LOCALIZATION result in the test on intermediate filament [4] was “P”.

B5: Plectin-1 3777-4313: EGFP fused (N terminus) human Plectin-1 fragment, residues 3777-4313 of sequence number 8 (protein, UniProt Q15149 3777-4313, looked up, fragment)
chain: YDYVRRRLTAEDLFEARIISLETYNLLREGTRSLREALEAESAWCYLYGTGSVAGVYLPGSRQTLSIYQALKKGLLSAEVARLLLEAQAATGFLLDPVKGERLTVDEAVRKGLVGPELHDRLLSAERAVTGYRDPYTEQTISLFQAMKKELIPTEEALRLLDAQLATGGIVDPRLGFHLPLEVAYQRGYLNKDTHDQLSEPSEVRSYVDPSTDERLSYTQLLRRCRRDDGTGQLLLPLSDARKLTFRGLRKQITMEELVRSQVMDEATALQLREGLTSIEEVTKNLQKFLEGTSCIAGVFVDATKERLSVYQAMKKGIIRPGTAFELLEAQAATGYVIDPIKGLKLTVEEAVRMGIVGPEFKDKLLSAERAVTGYKDPYSGKLISLFQAMKKGLILKDHGIRLLEAQIATGGIIDPEESHRLPVEVAYKRGLFDEEMNEILTDPSDDTKGFFDPNTEENLTYLQLMERCITDPQTGLCLLPLKEKKRERKTSSKSSVRKRRVVIVDPETGKEMSVYEAYRKGLIDHQTYLELSEQEC
modifications: N-terminal EGFP fusion
For the molecule B5, in the test with intermediate filament [1], the WASHABILITY result was “P”. For the same molecule, the HALF-LIFE in the test on intermediate filament [2] is 0.052 s. Also, the “IRIS IMAGE” value with intermediate filament [3] is reported as “P”. Moreover, in the test on intermediate filament [4], the LOCALIZATION entry is “P”.
